Results on three molecules are retold here after patent publication US5102995A, “DNA encoding modified heparin cofactor II” (Washington University, priority 1989, dated 1992).

Test [1] concerns thrombin. The experiment in a line: Inhibition of thrombin by rHCII (chromogenic substrate Chromozym TH). To be noted: for Second-order rate constant (k2) for inhibition of thrombin: No GAG, thrombin 15 nM, room temperature; for Increase in the rate constant for thrombin inhibition produced by dermatan sulfate: dermatan sulfate vs no GAG; for Increase in the rate constant for thrombin inhibition produced by heparin: heparin vs no GAG; for Maximum rate constant of thrombin inhibition relative to native HCII: in the presence of dermatan sulfate. It is filed as biochemical, human. As to the method: (§1) Materials--Chromogenic substrates were purchased from the following sources: tosyl-Gly-Pro-Arg-p-nitroanilide (Chromozym TH), Boehringer Mannheim; N-succinyl-Ala-Ala-Pro-Phe-p-nitroanilde, Sigma; methoxycarbonyl cyclohexylglycyl-Gly-Arg-p-nitroanilde (Spectrozyme FXa), American Diagnostica; and Pro-Phe-Arg-p-nitroanilide (S-2302), KabiVitrum. Thrombin and HCII derived from human plasma were prepared and assayed by conventional procedures as previously described by Blinder et al., J. Biol. Chem. 264, 5128-5133 (1989). Human coagulation factor Xa was provided by Dr. George Broze, Jr., Washington University, St. Louis, Mo. Human chymotrypsin and plasma kallikrein were purchased from Sigma. Affinity purified rabbit anti-HCII antibodies were prepared and labeled with Na[^125 I] by conventional procedure as described previously by Blinder et al., Biochemistry 27, 752-759 (1988). Bovine lung heparin and porcine skin dermatan sulfate were purchased from Sigma; the dermatan sulfate was treated with nitrous acid to remove contaminating heparin prior to use [Teien et al., Thromb. Res. 8, 859-867 (1976)]. Heparin-Sepharose was prepared by commonly known procedure as described previously by Tollefsen et al., J. Biol. Chem. 257, 2162-2169 (1982).
(§2) Inhibition of proteases by rHCII--Protease inhibition by rHCII was determined by incubating 90 μl of the partially purified rHCII (or the corresponding heparin-Sepharose fractions of a control lysate from cells transformed with pMON-5840) with 5 μl of the protease and 5 μl of either glycosaminoglycan or water in a disposable polystyrene cuvette at room temperature. Final concentrations of the proteases were as follows: thrombin, 15 nM; chymotrypsin, 21 nM; factor Xa, 16 nM; and kallikrein, 10 nM. After a specified period of time from 5 seconds (s) to 150 min, 300-500 μl of the appropriate chromogenic substrate was added, and the absorbance at 405 nm was recorded continuously for 100 s. The rate of change of absorbance was proportional to the concentration of active protease remaining in the incubation. The amounts added and concentrations of each substrate were as follows: Chromozym TH (thrombin), 500 μl, 0.1 mM; N-succinyl-Ala-Ala-Pro-Phe-p-nitroanilde (chymovtrypsin), 300 μl, 0.5 mM; Spectrozyme FXa (factor Xa), 400 μl, 0.125 mM; and S-2302 (kallikrein), 300 μl, 0.4 mM.
(§3) Protease inhibition by rHCII in the absence of a glycosaminoglycan--The time courses of inhibition of thrombin, factor Xa, kallikrein, and chymotrypsin by […] rHCII(Leu444 →Arg) in the absence of a glycosaminoglycan are indicated in FIG. 3. The incubations were performed under pseudo-first-order conditions, such that the initial concentration of rHCII was greater than the concentration of protease. The pseudo-first-order rate constants (k1) for protease inhibition were determined by fitting the data to the following equation: k1 t=ln([P]0 /[P]t), in which [P]0 =initial protease activity and [P]t =protease activity at time=t. The second-order rate constants (k2) were then calculated by dividing k1 by the initial rHCII concentration. It was observed that rHCII(Leu444 →Arg) inhibits thrombin almost 100 times more rapidly than native rHCII in the absence of a glycosaminoglycan. Furthermore, rHCII(Leu444 →Arg) inhibits factor Xa and kallikrein, while inhibition of these proteases by native rHCII is undetectable.
Inhibition of thrombin by rHCII in the presence of dermatan sulfate or heparin--The time course of inhibition of thrombin was determined in the presence of various concentrations of dermatan sulfate or heparin.

Test [2] has as its system chymotrypsin. As to the kind of experiment: Inhibition of chymotrypsin by rHCII (chromogenic substrate). It is filed as biochemical, human. To be noted: for Second-order rate constant (k2) for inhibition of chymotrypsin: No GAG, chymotrypsin 21 nM; for Inhibition of chymotrypsin (in words): absence of a glycosaminoglycan. Here is the method: as §1, §2, §3
Test [3] deals with factor Xa. As to the kind of experiment: Inhibition of factor Xa by rHCII (Spectrozyme FXa). It is filed as biochemical, human. The settings on record: for Second-order rate constant (k2) for inhibition of factor Xa: No GAG, factor Xa 16 nM; for Inhibition of factor Xa (in words): absence of a glycosaminoglycan. Here is the method:
as §1, §2, §3

Test [4] relates to plasma kallikrein. As to the kind of experiment: Inhibition of kallikrein by rHCII (S-2302). It is filed as biochemical, human. To be noted: for Second-order rate constant (k2) for inhibition of kallikrein: No GAG, kallikrein 10 nM; for Inhibition of kallikrein (in words): absence of a glycosaminoglycan. As to the method:
as §1, §2, §3

Test [5] relates to thrombin. The settings on record: literature; cited from earlier work.

B1: rHCII(Leu444 →Arg): modified heparin cofactor II: leucine at position 444 replaced by arginine in the 480 amino acid sequence; expressed in E. coli (protein, UniProt P05546 20-499, looked up, variant L444R)
Heparin cofactor 2: GSKGPLDQLEKGGETAQSADPQWEQLNNKNLSMPLLPADFHKENTVTNDWIPEGEEDDDYLDLEKIFSEDDDYIDIVDSLSVSPTDSDVSAGNILQLFHGKSRIQRLNILNAKFAFNLYRVLKDQVNTFDNIFIAPVGISTAMGMISLGLKGETHEQVHSILHFKDFVNASSKYEITTIHNLFRKLTHRLFRRNFGYTLRSVNDLYIQKQFPILLDFKTKVREYYFAEAQIADFSDPAFISKTNNHIMKLTKGLIKDALENIDPATQMMILNCIYFKGSWVNKFPVEMTHNHNFRLNEREVVKVSMMQTKGNFLAANDQELDCDILQLEYVGGISMLIVVPHKMSGMKTLEAQLTPRVVERWQKSMTNRTREVLLPKFKLEKNYNLVESLKLMGIRMLFDKNGNMAGISDQRIAIDLFKHQGTITVNEEGTQATTVTTVGFMPRSTQVRFTVDRPFLFLIYEHRTSCLLFMGRVANPSRS
modifications: expressed in E. coli
Take B1: in test [1], the “Second-order rate constant (k2) for inhibition of thrombin” value was 103000 M⁻¹ s⁻¹, the “Increase in the rate constant for thrombin inhibition produced by dermatan sulfate” value is “much smaller effect”, the “Increase in the rate constant for thrombin inhibition produced by heparin” value is “minimal effect” and the “Maximum rate constant of thrombin inhibition relative to native HCII” value is on record as “about twice as fast”. In test [1] (listed as HCII(Leu444 →Arg)), the “Second-order rate constant (k2) for inhibition of thrombin” value worked out at 103000 M⁻¹ s⁻¹ and the “Maximum rate constant of thrombin inhibition relative to native HCII” value amounted to 2 fold. The “Rate of thrombin inhibition relative to native HCII” value in test [1] (absence of a glycosaminoglycan) was approximately 100 fold. For the same molecule, in test [2], the “Second-order rate constant (k2) for inhibition of chymotrypsin” value was less than 170 M⁻¹ s⁻¹ and the “Inhibition of chymotrypsin (in words)” value is recorded as “does not inhibit chymotrypsin at a detectable rate”. Also, in test [2] (listed as HCII(Leu444 →Arg)), the “Inhibition of chymotrypsin (in words)” value is “more slowly”. In test [3], the “Second-order rate constant (k2) for inhibition of factor Xa” value was determined as 733 M⁻¹ s⁻¹ and the “Inhibition of factor Xa (in words)” value is “inhibits”. Besides, the “Inhibition of factor Xa (in words)” value in test [3] (listed as HCII(Leu444 →Arg)) was “inhibited more rapidly”. The “Effect of dermatan sulfate on rate of inhibition of factor Xa” value in test [3] (dermatan sulfate) is “nor does it increase”. For the same molecule, the “Effect of heparin on inhibition of factor Xa” value in test [3] (heparin 100 μg/ml) is reported as “appears to protect”. Besides, in test [4], the “Second-order rate constant (k2) for inhibition of kallikrein” value is 2170 M⁻¹ s⁻¹ and the “Inhibition of kallikrein (in words)” value was “inhibits”. The “Inhibition of kallikrein (in words)” value in test [4] (listed as HCII(Leu444 →Arg)) was “inhibited more rapidly”. The “Effect of heparin on inhibition of kallikrein” value in test [4] (heparin 100 μg/ml) was “appears to protect”.

B2: HCII: heparin cofactor II, a 65,600 dalton plasma glycoprotein, serpin that inhibits thrombin (protein, UniProt P05546 20-499, looked up)
Heparin cofactor 2: GSKGPLDQLEKGGETAQSADPQWEQLNNKNLSMPLLPADFHKENTVTNDWIPEGEEDDDYLDLEKIFSEDDDYIDIVDSLSVSPTDSDVSAGNILQLFHGKSRIQRLNILNAKFAFNLYRVLKDQVNTFDNIFIAPVGISTAMGMISLGLKGETHEQVHSILHFKDFVNASSKYEITTIHNLFRKLTHRLFRRNFGYTLRSVNDLYIQKQFPILLDFKTKVREYYFAEAQIADFSDPAFISKTNNHIMKLTKGLIKDALENIDPATQMMILNCIYFKGSWVNKFPVEMTHNHNFRLNEREVVKVSMMQTKGNFLAANDQELDCDILQLEYVGGISMLIVVPHKMSGMKTLEAQLTPRVVERWQKSMTNRTREVLLPKFKLEKNYNLVESLKLMGIRMLFDKNGNMAGISDQRIAIDLFKHQGTITVNEEGTQATTVTTVGFMPLSTQVRFTVDRPFLFLIYEHRTSCLLFMGRVANPSRS
Regarding B2, in test [5], the “Increase of the rate of thrombin inhibition by heparin and dermatan sulfate” value is listed as ~ 1000 fold.

B3: native rHCII: recombinant native heparin cofactor II expressed in E. coli; amino acid sequence identical to HCII purified from human plasma (protein, UniProt P05546 20-499, looked up)
Heparin cofactor 2: GSKGPLDQLEKGGETAQSADPQWEQLNNKNLSMPLLPADFHKENTVTNDWIPEGEEDDDYLDLEKIFSEDDDYIDIVDSLSVSPTDSDVSAGNILQLFHGKSRIQRLNILNAKFAFNLYRVLKDQVNTFDNIFIAPVGISTAMGMISLGLKGETHEQVHSILHFKDFVNASSKYEITTIHNLFRKLTHRLFRRNFGYTLRSVNDLYIQKQFPILLDFKTKVREYYFAEAQIADFSDPAFISKTNNHIMKLTKGLIKDALENIDPATQMMILNCIYFKGSWVNKFPVEMTHNHNFRLNEREVVKVSMMQTKGNFLAANDQELDCDILQLEYVGGISMLIVVPHKMSGMKTLEAQLTPRVVERWQKSMTNRTREVLLPKFKLEKNYNLVESLKLMGIRMLFDKNGNMAGISDQRIAIDLFKHQGTITVNEEGTQATTVTTVGFMPLSTQVRFTVDRPFLFLIYEHRTSCLLFMGRVANPSRS
Regarding B3, in test [1], the “Second-order rate constant (k2) for inhibition of thrombin” value was determined as 1050 M⁻¹ s⁻¹, the “Increase in the rate constant for thrombin inhibition produced by dermatan sulfate” value was approximately 3500 fold and the “Increase in the rate constant for thrombin inhibition produced by heparin” value is “about 40 fold”. Also, the “Second-order rate constant (k2) for inhibition of thrombin” value in test [1] (listed as native HCII) came to 1050 M⁻¹ s⁻¹. The “Second-order rate constant (k2) for inhibition of chymotrypsin” value in test [2] came out at 3670 M⁻¹ s⁻¹. In addition, the “Effect of dermatan sulfate on rate of inhibition of chymotrypsin” value in test [2] (dermatan sulfate) was “does not significantly increase”. In test [3], the “Second-order rate constant (k2) for inhibition of factor Xa” value was less than 17 M⁻¹ s⁻¹ and the “Inhibition of factor Xa (in words)” value is recorded as “undetectable”. Moreover, in test [4], the “Second-order rate constant (k2) for inhibition of kallikrein” value was less than 50 M⁻¹ s⁻¹ and the “Inhibition of kallikrein (in words)” value was “undetectable”.
